Laboratory results as given in the supplement of paper PMC5998384.

What was measured:
HeLa Kyoto [1] = experiment: solubility in G1/S (NP-40 vs SDS abundance) (log2 ratio); higher = more soluble; conditions: cell cycle stage: G1/S
HeLa Kyoto [2] = experiment: melting temperature (median over replicates), in situ; higher = more thermally stable
HeLa Kyoto [3] = experiment: solubility change mitosis vs G1/S (difference of NP-40 vs SDS log2 ratios) (log2 ratio difference); higher = more soluble in mitosis
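Wherever melting temperature (median over replicates), in situ is given: HeLa Kyoto cells synchronized by double thymidine or nocodazole block, proteins quantified by TMT10plex mass spectrometry, three independent biological replicates.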
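Wherever solubility change mitosis vs G1/S (difference of NP-40 vs SDS log2 ratios) is given: synchronized HeLa Kyoto cells (double thymidine block for G1/S, nocodazole release for mitosis), protein amounts in NP-40 versus SDS lysates quantified by mass spectrometry, three biological replicates.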
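Wherever solubility in G1/S (NP-40 vs SDS abundance) is given: HeLa Kyoto cells arrested at G1/S by double thymidine block, proteins quantified by TMT10plex mass spectrometry in mild NP-40 versus SDS extracts, three biological replicates.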

ZNF593, sequence (chain, as listed by the source): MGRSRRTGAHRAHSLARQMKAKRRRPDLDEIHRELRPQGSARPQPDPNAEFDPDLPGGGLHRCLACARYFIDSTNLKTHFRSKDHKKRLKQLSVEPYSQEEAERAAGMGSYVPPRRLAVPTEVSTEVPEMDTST
NFYA, sequence (chain, as listed by the source): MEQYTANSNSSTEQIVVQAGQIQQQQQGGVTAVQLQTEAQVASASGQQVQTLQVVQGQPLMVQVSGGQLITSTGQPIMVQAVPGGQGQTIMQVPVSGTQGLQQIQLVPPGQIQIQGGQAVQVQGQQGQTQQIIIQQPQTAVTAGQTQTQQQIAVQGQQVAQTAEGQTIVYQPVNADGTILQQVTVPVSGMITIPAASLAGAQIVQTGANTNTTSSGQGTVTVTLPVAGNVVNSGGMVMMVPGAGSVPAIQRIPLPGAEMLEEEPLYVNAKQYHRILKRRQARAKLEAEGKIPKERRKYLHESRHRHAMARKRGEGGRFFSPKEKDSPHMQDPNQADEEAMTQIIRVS
WNK2, sequence (chain, as listed by the source): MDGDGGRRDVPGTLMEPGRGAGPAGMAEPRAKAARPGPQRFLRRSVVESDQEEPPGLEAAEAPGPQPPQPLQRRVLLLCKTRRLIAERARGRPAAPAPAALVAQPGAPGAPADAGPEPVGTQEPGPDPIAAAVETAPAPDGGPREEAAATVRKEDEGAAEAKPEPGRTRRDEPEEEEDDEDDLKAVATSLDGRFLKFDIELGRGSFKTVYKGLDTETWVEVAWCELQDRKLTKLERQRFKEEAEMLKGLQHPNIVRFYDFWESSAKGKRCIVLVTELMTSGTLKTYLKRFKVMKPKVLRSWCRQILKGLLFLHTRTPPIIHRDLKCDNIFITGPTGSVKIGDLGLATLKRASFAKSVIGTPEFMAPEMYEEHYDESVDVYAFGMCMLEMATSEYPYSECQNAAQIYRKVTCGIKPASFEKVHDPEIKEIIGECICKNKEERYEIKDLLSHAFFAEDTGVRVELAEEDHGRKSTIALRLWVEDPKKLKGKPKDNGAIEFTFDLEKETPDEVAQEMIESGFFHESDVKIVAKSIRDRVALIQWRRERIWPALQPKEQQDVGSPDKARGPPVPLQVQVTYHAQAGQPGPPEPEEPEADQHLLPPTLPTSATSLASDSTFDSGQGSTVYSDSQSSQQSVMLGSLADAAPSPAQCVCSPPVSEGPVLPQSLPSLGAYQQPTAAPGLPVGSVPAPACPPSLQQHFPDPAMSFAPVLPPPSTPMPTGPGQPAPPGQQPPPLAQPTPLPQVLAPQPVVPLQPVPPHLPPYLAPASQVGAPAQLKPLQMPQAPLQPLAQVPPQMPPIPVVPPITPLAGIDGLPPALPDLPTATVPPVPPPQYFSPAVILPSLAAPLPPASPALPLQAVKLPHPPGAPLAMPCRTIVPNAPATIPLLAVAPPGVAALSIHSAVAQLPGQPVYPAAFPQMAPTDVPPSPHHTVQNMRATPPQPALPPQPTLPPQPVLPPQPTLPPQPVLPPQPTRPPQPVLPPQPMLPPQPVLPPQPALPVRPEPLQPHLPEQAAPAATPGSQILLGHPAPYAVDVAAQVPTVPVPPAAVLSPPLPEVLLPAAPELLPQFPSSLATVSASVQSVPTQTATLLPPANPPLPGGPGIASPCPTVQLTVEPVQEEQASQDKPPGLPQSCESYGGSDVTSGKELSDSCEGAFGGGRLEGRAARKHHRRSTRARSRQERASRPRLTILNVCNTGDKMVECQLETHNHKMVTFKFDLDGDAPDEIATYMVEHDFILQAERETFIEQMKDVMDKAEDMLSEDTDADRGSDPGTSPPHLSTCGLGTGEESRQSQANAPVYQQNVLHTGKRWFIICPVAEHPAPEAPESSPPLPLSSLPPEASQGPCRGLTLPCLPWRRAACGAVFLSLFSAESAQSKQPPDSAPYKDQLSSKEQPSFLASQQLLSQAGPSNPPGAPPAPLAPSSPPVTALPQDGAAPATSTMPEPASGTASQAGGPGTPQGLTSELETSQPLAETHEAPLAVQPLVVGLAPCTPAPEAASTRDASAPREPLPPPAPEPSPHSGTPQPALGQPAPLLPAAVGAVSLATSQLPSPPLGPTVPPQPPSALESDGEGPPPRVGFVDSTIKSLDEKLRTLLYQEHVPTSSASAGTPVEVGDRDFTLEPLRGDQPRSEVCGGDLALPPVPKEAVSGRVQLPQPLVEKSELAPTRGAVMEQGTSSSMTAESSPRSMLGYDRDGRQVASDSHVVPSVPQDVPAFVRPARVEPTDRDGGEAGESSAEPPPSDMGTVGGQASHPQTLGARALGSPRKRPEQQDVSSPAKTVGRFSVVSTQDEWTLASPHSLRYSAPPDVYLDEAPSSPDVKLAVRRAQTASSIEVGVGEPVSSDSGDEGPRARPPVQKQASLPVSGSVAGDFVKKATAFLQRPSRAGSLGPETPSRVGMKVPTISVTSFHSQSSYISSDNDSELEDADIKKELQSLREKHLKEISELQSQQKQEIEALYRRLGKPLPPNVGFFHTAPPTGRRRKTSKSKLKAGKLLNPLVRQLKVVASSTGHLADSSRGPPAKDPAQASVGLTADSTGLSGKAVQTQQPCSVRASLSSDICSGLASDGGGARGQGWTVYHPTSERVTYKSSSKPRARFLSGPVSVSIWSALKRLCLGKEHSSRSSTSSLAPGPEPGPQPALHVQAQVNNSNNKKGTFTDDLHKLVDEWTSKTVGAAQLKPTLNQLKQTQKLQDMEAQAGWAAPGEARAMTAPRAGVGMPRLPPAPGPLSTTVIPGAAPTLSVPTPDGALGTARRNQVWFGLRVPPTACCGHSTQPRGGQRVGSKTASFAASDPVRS

| Substance | solubility in G1/S (log2) (HeLa Kyoto [1]) | melting temperature (HeLa Kyoto [2]; cell cycle stage: G1/S) | melting temperature (HeLa Kyoto [2]; cell cycle stage: mitosis) | solubility change mitosis (log2) (HeLa Kyoto [3]) |
| --- | --- | --- | --- | --- |
| MPAFLGLKCLGKLCSSEKSKVTSSERTSARGSNRKRLIVEDRRVSGTSFTAHRRATITHLLYLCPKDYCPRGRVCNSVDPFVAHPQDPHHPSEKPVIHCHKCGEPCKGEVLRVQTKHFHIKCFTCKVCGCDLAQGGFFIKNGEYLCTLDYQRMYGTRCHGCGEFVEGEVVTALGKTYHPNCFACTICKRPFPPGDRVTFNGRDCLCQLCAQPMSSSPKETTFSSNCAGCGRDIKNGQALLALDKQWHLGCFKCKSCGKVLTGEYISKDGAPYCEKDYQGLFGVKCEACHQFITGKVLEAGDKHYHPSCARCSRCNQMFTEGEEMYLQGSTVWHPDCKQSTKTEEKLRPTRTSSESIYSRPGSSIPGSPGHTIYAKVDNEILDYKDLAAIPKVKAIYDIERPDLITYEPFYTSGYDDKQERQSLGESPRTLSPTPSAEGYQDVRDRMIHRSTSQGSINSPVYSRHSYTPTTSRSPQHFHRPGNEPSSGRNSPLPYRPDSRPLTPTYAQAPKHFHVPDQGINIYRKPPIYKQHAALAAQSKSSEDIIKFSKFPAAQAPDPSETPKIETDHWPGPPSFAVVGPDMKRRSSGREEDDEELLRRRQLQEEQLMKLNSGLGQLILKEEMEKESRERSSLLASRYDSPINSASHIPSSKTASLPGYGRNGLHRPVSTDFAQYNSYGDVSGGVRDYQTLPDGHMPAMRMDRGVSMPNMLEPKIFPYEMLMVTNRGRNKILREVDRTRLERHLAPEVFREIFGMSIQEFDRLPLWRRNDMKKKAKLF [ABLIM1] | -0.8 | 46.2 °C | 51.7 °C | 0.599 |
| MGSTVPRSASVLLLLLLLRRAEQPCGAELTFELPDNAKQCFHEEVEQGVKFSLDYQVITGGHYDVDCYVEDPQGNTIYRETKKQYDSFTYRAEVKGVYQFCFSNEFSTFSHKTVYFDFQVGDEPPILPDMGNRVTALTQMESACVTIHEALKTVIDSQTHYRLREAQDRARAEDLNSRVSYWSVGETIALFVVSFSQVLLLKSFFTEKRPISRAVHS [TMED3] | -0.0742 | 53.4 °C | 53.4 °C | -0.000936 |
| NFYA | -0.0285 | 58 °C | 58.1 °C | -0.0439 |
| MFAKLKKKIAEETAVAQRPGGATRIPRSVSKESVASMGADSGDDFASDGSSSREDLSSQLLRRNEQIRKLEARLSDYAEQVRNLQKIKEKLEIALEKHQDSSMRKFQEQNETFQANRAKMAEGLALALARKDQEWSEKMDQLEKEKNILTAQLQEMKNQSMNLFQRRDEMDELEGFQQQELSKIKHMLLKKEESLGKMEQELEARTRELSRTQEELMNSNQMSSDLSQKLEELQRHYSTLEEQRDHVIASKTGAESKITALEQKEQELQALIQQLSIDLQKVTAETQEKEDVITHLQEKVASLEKRLEQNLSGEEHLQELLKEKTLAEQNLEDTRQQLLAARSSQAKAINTLETRVRELEQTLQASEEQLQQSKGIVAAQETQIQELAAANQESSHVQQQALALEQQFLERTQALEAQIVALERTRAADQTTAEQGMRQLEQENAALKECRNEYERSLQNHQFELKKLKEEWSQREIVSVAMAQALEEVRKQREEFQQQAANLTAIIDEKEQNLREKTEVLLQKEQEILQLERGHNSALLQIHQLQAELEALRTLKAEEAAVVAEQEDLLRLRGPLQAEALSVNESHVTSRAMQDPVFQLPTAGRTPNGEVGAMDLTQLQKEKQDLEQQLLEKNKTIKQMQQRMLELRKTLQKELKIRPDNELFEVREKPGPEMANMAPSVTNNTDLTDAREINFEYLKHVVLKFMSCRESEAFHLIKAVSVLLNFSQEEENMLKETLEYKMSWFGSKPAPKGSIRPSISNPRIPWS [GOLGA1] | 0.556 | 49.5 °C |  | 0.0219 |
| ZNF593 | -0.278 | 57.9 °C | 51.7 °C | 1.09 |
| MRGAGPSPRQSPRTLRPDPGPAMSFFRRKVKGKEQEKTSDVKSIKASISVHSPQKSTKNHALLEAAGPSHVAINAISANMDSFSSSRTATLKKQPSHMEAAHFGDLGRSCLDYQTQETKSSLSKTLEQVLHDTIVLPYFIQFMELRRMEHLVKFWLEAESFHSTTWSRIRAHSLNTVKQSSLAEPVSPSKKHETTASFLTDSLDKRLEDSGSAQLFMTHSEGIDLNNRTNSTQNHLLLSQECDSAHSLRLEMARAGTHQVSMETQESSSTLTVASRNSPASPLKELSGKLMKSIEQDAVNTFTKYISPDAAKPIPITEAMRNDIIARICGEDGQVDPNCFVLAQSIVFSAMEQEHFSEFLRSHHFCKYQIEVLTSGTVYLADILFCESALFYFSEYMEKEDAVNILQFWLAADNFQSQLAAKKGQYDGQEAQNDAMILYDKYFSLQATHPLGFDDVVRLEIESNICREGGPLPNCFTTPLRQAWTTMEKVFLPGFLSSNLYYKYLNDLIHSVRGDEFLGGNVSLTAPGSVGPPDESHPGSSDSSASQSSVKKASIKILKNFDEAIIVDAASLDPESLYQRTYAGKMTFGRVSDLGQFIRESEPEPDVRKSKGSMFSQAMKKWVQGNTDEAQEELAWKIAKMIVSDIMQQAQYDQPLEKSTKL [AKAP10] | 0.00407 |  | 49.8 °C | -0.166 |
| RPL22L1 | -0.564 | 53.8 °C | 52 °C | 0.209 |
| MAFTNYSSLNRAQLTFEYLHTNSTTHEFLFGALAELVDNARDADATRIDIYAERREDLRGGFMLCFLDDGAGMDPSDAASVIQFGKSAKRTPESTQIGQYGNGLKSGSMRIGKDFILFTKKEDTMTCLFLSRTFHEEEGIDEVIVPLPTWNARTREPVTDNVEKFAIETELIYKYSPFRTEEEVMTQFMKIPGDSGTLVIIFNLKLMDNGEPELDIISNPRDIQMAETSPEGTKPERRSFRAYAAVLYIDPRMRIFIHGHKVQTKRLSCCLYKPRMYKYTSSRFKTRAEQEVKKAEHVARIAEEKAREAESKARTLEVRLGGDLTRDSRVMLRQVQNRAITLRREADVKKRIKEAKQRALKEPKELNFVFGVNIEHRDLDGMFIYNCSRLIKMYEKVGPQLEGGMACGGVVGVVDVPYLVLEPTHNKQDFADAKEYRHLLRAMGEHLAQYWKDIAIAQRGIIKFWDEFGYLSANWNQPPSSELRYKRRRAMEIPTTIQCDLCLKWRTLPFQLSSVEKDYPDTWVCSMNPDPEQDRCEASEQKQKVPLGTFRKDMKTQEEKQKQLTEKIRQQQEKLEALQKTTPIRSQADLKKLPLEVTTRPSTEEPVRRPQRPRSPPLPAVIRNAPSRPPSLPTPRPASQPRKAPVISSTPKLPALAAREEASTSRLLQPPEAPRKPANTLVKTASRPAPLVQQLSPSLLPNSKSPREVPSPKVIKTPVVKKTESPIKLSPATPSRKRSVAVSDEEEVEEEAERRKERCKRGRFVVKEEKKDSNELSDSAGEEDSADLKRAQKDKGLHVEVRVNREWYTGRVTAVEVGKHVVRWKVKFDYVPTDTTPRDRWVEKGSEDVRLMKPPSPEHQSLDTQQEGGEEEVGPVAQQAIAVAEPSTSECLRIEPDTTALSTNHETIDLLVQILRNCLRYFLPPSFPISKKQLSAMNSDELISFPLKEYFKQYEVGLQNLCNSYQSRADSRAKASEESLRTSERKLRETEEKLQKLRTNIVALLQKVQEDIDINTDDELDAYIEDLITKGD [MORC2] | -0.0374 | 48.1 °C | 48.6 °C | -0.0838 |
| BCL9L | 0.294 | 55.7 °C | 54.4 °C | 0.083 |
| MTSPEIASLSWGQMKVKGSNTTYKDCKVWPGGSRTWDWRETGTEHSPGVQPADVKEVVEKGVQTLVIGRGMSEALKVPSSTVEYLKKHGIDVRVLQTEQAVKEYNALVAQGVRVGGVFHSTC [AAMDC] | 0.355 | 53.4 °C | 52.5 °C | 0.0391 |
| WNK2 | 0.2 |  | 52.6 °C | -0.0197 |
| MAVLKLTDQPPLVQAIFSGDPEEIRMLIHKTEDVNTLDSEKRTPLHVAAFLGDAEIIELLILSGARVNAKDNMWLTPLHRAVASRSEEAVQVLIKHSADVNARDKNWQTPLHVAAANKAVKCAEVIIPLLSSVNVSDRGGRTALHHAALNGHVEMVNLLLAKGANINAFDKKDRRALHWAAYMGHLDVVALLINHGAEVTCKDKKGYTPLHAAASNGQINVVKHLLNLGVEIDEINVYGNTALHIACYNGQDAVVNELIDYGANVNQPNNNGFTPLHFAAASTHGALCLELLVNNGADVNIQSKDGKSPLHMTAVHGRFTRSQTLIQNGGEIDCVDKDGNTPLHVAARYGHELLINTLITSGADTAKCGIHSMFPLHLAALNAHSDCCRKLLSSGFEIDTPDKFGRTCLHAAAAGGNVECIKLLQSSGADFHKKDKCGRTPLHYAAANCHFHCIETLVTTGANVNETDDWGRTALHYAAASDMDRNKTILGNAHDNSEELERARELKEKEATLCLEFLLQNDANPSIRDKEGYNSIHYAAAYGHRQCLELLLERTNSGFEESDSGATKSPLHLAAYNGHHQALEVLLQSLVDLDIRDEKGRTALDLAAFKGHTECVEALINQGASIFVKDNVTKRTPLHASVINGHTLCLRLLLEIADNPEAVDVKDAKGQTPLMLAVAYGHIDAVSLLLEKEANVDTVDILGCTALHRGIMTGHEECVQMLLEQEVSILCKDSRGRTPLHYAAARGHATWLSELLQMALSEEDCCFKDNQGYTPLHWACYNGNENCIEVLLEQKCFRKFIGNPFTPLHCAIINDHGNCASLLLGAIDSSIVSCRDDKGRTPLHAAAFADHVECLQLLLRHSAPVNAVDNSGKTALMMAAENGQAGAVDILVNSAQADLTVKDKDLNTPLHLACSKGHEKCALLILDKIQDESLINEKNNALQTPLHVAARNGLKVVVEELLAKGACVLAVDENASRSNGPRSTPGTAVQKEE [ANKRD44] | -0.235 | 51.7 °C | 52.2 °C | -0.0872 |
| MITKTHKVDLGLPEKKKKKKVVKEPETRYSVLNNDDYFADVSPLRATSPSKSVAHGQAPEMPLVKKKKKKKKGVSTLCEEHVEPETTLPARRTEKSPSLRKQVFGHLEFLSGEKKNKKSPLAMSHASGVKTSPDPRQGEEETRVGKKLKKHKKEKKGAQDPTAFSVQDPWFCEAREARDVGDTCSVGKKDEEQAALGQKRKRKSPREHNGKVKKKKKIHQEGDALPGHSKPSRSMESSPRKGSKKKPVKVEAPEYIPISDDPKASAKKKMKSKKKVEQPVIEEPALKRKKKKKRKESGVAGDPWKEETDTDLEVVLEKKGNMDEAHIDQVRRKALQEEIDRESGKTEASETRKWTGTQFGQWDTAGFENEDQKLKFLRLMGGFKNLSPSFSRPASTIARPNMALGKKAADSLQQNLQRDYDRAMSWKYSRGAGLGFSTAPNKIFYIDRNASKSVKLED [KNOP1] | -1.76 | 54.2 °C | 52.1 °C | 1.57 |
| MALITLRKNLYRLSDFQMHRALAALKNKPLNHVHKVVKERLCPWLCSRQPEPFGVKFHHAHCKKFHSKNGNDLHPLGGPVFSQVSDCDRLEQNVKNEESQMFYRRLSNLTSSEEVLSFISTMETLPDTMAAGALQRICEVEKKDGDQGLPKEILENSIFQALCFQFEKEPSQLSNTSLVTALQALILLHVDPQSSLLLNLVAECQNRLRKGGMEVRNLCILGESLITLHSSGCVTLELIINQLQGEKLETFTPEDIVALYRILQACTEKVDEHQTFLNKINNFSLSIVSNLSPKLISQMLTALVVLDQSQAFPLIIKLGKYVVRHVPHFTNEELRRVLEAFIYFGHHDTFFTKALEHRVAAVCLTLDPEVVCRVMEYCSRELILSKPILNAVAETFVCQTEKFSPRQISALMEPFGKLNYLPPNASALFRKLENVLFTHFNYFPPKSLLKLLHSCSLNECHPVNFLAKIFKPLFLQRLQGKESHLDTLSRAQLTQLFLASVLECPFYKGPKLLPKYQVKSFLTPCCSLETPVDSQLYRYVKIGLTNLLGARLYFAPKVLTPYCYTIDVEIKLDEEGFVLPSTANEDIHKRIALCIDGPKRFCSNSKHLLGKEAIKQRHLQLLGYQVVQIPYHEIGMLKSRRELVEYLQRKLFSQNTVHWLQE [FASTKD3] | -0.00458 |  | 47.8 °C | -0.151 |
